Assay results as given in patent US20120263644A1.

How the values were obtained:
[1] = molecular target: leukocyte function antigen-1 (LFA-1), composed of CD11a and CD18, on human white blood cells (human) (UniProt P20701); assay: cell-based or functional assay
[2] = molecular target: constitutively active LFA-1 expressed on Jurkat T-cell line J-β2.7/LFA-1Δ; assay: cell-based or functional assay

leukocyte function antigen-1 (LFA-1), composed of CD11a and CD18, on human white blood cells (human), sequence (P20701 26-1170, chain 1 of 2): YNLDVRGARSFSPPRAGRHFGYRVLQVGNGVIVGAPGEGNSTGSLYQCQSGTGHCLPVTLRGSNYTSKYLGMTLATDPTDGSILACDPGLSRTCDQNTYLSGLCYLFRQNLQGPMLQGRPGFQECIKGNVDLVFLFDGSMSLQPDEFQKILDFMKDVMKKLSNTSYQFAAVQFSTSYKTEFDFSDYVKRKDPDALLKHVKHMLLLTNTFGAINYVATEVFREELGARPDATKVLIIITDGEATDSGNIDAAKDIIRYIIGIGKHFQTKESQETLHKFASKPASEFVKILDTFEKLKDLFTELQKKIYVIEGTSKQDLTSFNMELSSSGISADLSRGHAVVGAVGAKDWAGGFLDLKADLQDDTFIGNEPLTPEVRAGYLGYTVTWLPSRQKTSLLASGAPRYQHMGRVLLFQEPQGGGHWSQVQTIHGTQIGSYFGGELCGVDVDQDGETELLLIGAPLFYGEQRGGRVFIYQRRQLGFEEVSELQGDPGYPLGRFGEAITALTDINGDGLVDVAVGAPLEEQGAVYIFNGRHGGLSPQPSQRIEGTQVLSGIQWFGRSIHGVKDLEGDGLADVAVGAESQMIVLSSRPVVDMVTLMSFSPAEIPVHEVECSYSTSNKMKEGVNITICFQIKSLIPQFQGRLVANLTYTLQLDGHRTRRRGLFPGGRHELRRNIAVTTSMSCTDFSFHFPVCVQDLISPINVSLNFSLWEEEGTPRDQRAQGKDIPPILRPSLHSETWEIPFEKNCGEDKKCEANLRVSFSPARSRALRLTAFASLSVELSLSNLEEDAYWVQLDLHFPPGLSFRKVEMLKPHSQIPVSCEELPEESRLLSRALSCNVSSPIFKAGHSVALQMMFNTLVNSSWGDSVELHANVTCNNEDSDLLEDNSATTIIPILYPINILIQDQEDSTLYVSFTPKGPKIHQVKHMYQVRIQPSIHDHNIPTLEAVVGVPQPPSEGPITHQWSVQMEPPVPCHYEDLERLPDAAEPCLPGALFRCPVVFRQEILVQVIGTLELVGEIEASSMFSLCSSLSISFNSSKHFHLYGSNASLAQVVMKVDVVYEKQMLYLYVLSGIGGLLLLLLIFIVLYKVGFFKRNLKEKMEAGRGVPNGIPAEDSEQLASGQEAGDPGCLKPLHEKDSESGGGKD
leukocyte function antigen-1 (LFA-1), composed of CD11a and CD18, on human white blood cells (human), sequence (P05107 23-769, chain 2 of 2, further chain): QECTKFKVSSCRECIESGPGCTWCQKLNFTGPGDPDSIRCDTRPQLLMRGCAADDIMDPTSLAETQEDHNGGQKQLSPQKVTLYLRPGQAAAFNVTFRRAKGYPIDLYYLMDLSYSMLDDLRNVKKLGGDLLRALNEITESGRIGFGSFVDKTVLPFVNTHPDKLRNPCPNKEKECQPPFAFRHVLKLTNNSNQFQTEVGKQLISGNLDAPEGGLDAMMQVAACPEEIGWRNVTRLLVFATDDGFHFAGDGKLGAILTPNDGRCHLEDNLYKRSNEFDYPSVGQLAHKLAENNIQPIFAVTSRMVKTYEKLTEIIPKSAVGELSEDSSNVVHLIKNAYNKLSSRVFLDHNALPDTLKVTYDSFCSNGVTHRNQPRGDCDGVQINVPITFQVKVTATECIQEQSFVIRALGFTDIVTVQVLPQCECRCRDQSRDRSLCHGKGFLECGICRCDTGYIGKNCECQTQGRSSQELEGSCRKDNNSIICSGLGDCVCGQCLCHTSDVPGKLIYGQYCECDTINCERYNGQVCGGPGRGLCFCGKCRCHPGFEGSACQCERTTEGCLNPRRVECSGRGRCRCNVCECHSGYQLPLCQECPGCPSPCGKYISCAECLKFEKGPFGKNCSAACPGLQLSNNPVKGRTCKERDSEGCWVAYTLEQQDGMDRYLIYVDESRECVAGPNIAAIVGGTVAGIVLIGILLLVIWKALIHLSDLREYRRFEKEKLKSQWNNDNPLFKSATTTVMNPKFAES

B1: leukotoxin (LtxA) of Aggregatibacter actinomycetemcomitans strain NJ4500 (protein)
chain: MATTSLLNTKQQAAQFANSVADRAKENIDAAKEQLQKALDKLGKTGKKLTLYIKNYKKGNGLTALIKAAQKLGIEVYHEGKDGPALTNGILNTGKKLLGLTERGLTLFAPELDKWIQGNKHLSNSVGSTGNLTKAIDKVQSVLGTLQAFLNTAFSGMDLDALIKARQNGKNVTDVQLAKASLNLINELIGTISSITNNVDTFSKQLNKLGEALGQVKHFGSFGDKLKNLPKLGNLGKGLGALSGVLSAISAALLLANKDADTATKAAAAAELTNKVLGNIGKAITQYLIAQRAAAGLSTTGPVAGLIASVVSLAISPLSFLGIAKQFDRARMLEEYSKRFKKFGYNGDSLLGQFYKNTGIADAAITTINTVLSAIAAGVGAASAGSLVGAPIGLLVSAITSLISGILDASKQAVFEHIANQLADKIKAWENKYGKNYFENGYDARHSAFLEDSLKLFNELREKYKTENILSITQQGWDQRIGELAGITRNGDRIQSGKAYVDYLKKGEELAKHSDKFTKQILDPIKGNIDLSGIKGSTTLTFLNPLLTAGKEERKTRQSGKYEFITELKVKGRTDWKVKGVPNSNGVYDFSNLIQHAVTRDNKVLEARLIANLGAKDDYVFVGSGSTIVNAGDGYDVVDYSKGRTGALTIDGRNATKAGQYKVERDLSGTQVLQETVSKQETKRGKVTDLLEYRNYKLDYYYTNKGFKAHDELNSVEEIIGSTLRDKFYGSKFNDVFHGHDGDDLIYGYDGDDRLYGDNGNDEIHGGQGNDKLYGGAGNDRLFGEYGNNYLDGGEGDDHLEGGNGSDILRGGSGNDKLFGNQGDDLLDGGEGDDQLAGGEGNDIYVYRKEYGHHTITEHSGDKDKLSLANINLKDVSFERNGNDLLLKTNNRTAVTFKGWFSKPNSSAGLDEYQRKLLEYAPEKDRARLKRQFELQRGKVDKSLNNKVEEIIGKDGERITSQDIDNLFDKSGNKKTISPQELAGLIKNKGKSSSLMSSSRSSSMLTQKSGLSNDISRIISATSGFGSSGKALSASPLQTNNNFNSYANSLATTAA
50% effective dose (ED50) of LtxA against gp120-treated CD4 T cells, cell viability by cellular ATP after 20 hrs [1]: 0.367 µg/mL
ED50 of LtxA against mutant gp120-treated CD4 T cells, cell viability by cellular ATP after 20 hrs [1]: 0.44 µg/mL
ED50 of LtxA against untreated CD4 T cells, cell viability by cellular ATP after 20 hrs [1]: 0.437 µg/mL
IC50 of inhibition of proliferation of Jurkat cells after 72 hours (CellTiter Glo) [1]: 0.25 µg/mL
percent of CD3+ T lymphocytes expressing high levels of LFA-1 after LtxA treatment of PBMCs (approximately 11% before), flow cytometry [1]: 0.4%
percent of CD4 T cells activated by surface-bound anti-CD3 and anti-CD28 killed by LtxA at 390 and 780 ng/ml [1]: 100%
percent of untreated CD4 T cells susceptible to LtxA at 390 and 780 ng/ml [1]: 50%
sensitivity to LtxA-mediated toxicity, J-β2.7/LFA-1Δ cells against J-β2.7/LFA-1 wt cells [2]: 10 times
